Key:
Experiment in all cases: cell-based or functional assay
cKit (h) = cKit (h) (human (h), UniProt P10721 544-976, limits assumed)
Ret (h) = target: T1, Ret (h) (human (h), UniProt P07949 658-1114, limits assumed)
T1 sequence (looked up): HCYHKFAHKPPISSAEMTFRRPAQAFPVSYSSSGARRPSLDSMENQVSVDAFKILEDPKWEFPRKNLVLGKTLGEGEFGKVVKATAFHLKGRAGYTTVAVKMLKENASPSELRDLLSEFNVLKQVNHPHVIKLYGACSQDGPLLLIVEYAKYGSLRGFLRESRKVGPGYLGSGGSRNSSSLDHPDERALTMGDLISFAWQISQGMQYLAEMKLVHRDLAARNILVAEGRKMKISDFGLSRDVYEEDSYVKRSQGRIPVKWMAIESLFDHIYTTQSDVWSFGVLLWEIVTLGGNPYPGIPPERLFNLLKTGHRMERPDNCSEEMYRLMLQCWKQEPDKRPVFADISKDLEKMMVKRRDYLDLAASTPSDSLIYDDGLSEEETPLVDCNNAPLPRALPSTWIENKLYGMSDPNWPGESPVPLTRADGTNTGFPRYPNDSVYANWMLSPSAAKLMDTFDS

MAPKI (h) = MAPKI (h) (human (h), UniProt P28482 1-360, limits assumed)
CHK1 (h) = target: T2, CHK1 (h) (human (h), UniProt O14757 1-476)
T2 sequence (looked up): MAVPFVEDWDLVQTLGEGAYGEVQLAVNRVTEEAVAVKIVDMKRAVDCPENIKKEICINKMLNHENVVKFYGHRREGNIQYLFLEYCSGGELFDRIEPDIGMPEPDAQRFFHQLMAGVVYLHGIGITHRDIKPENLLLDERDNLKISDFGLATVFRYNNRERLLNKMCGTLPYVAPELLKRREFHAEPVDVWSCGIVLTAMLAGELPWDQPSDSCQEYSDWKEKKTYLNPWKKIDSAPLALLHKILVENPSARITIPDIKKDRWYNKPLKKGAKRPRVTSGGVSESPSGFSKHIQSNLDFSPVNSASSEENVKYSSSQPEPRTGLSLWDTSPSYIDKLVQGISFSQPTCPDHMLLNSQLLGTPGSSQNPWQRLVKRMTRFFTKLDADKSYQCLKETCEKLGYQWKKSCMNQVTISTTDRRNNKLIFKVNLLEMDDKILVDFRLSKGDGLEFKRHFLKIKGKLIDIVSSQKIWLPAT

Lck (h) = Lck (h) (human (h), UniProt P06239 1-509)
PKB β (h) = PKB β (h) (human (h), UniProt P31751 1-481, limits assumed)
L1MK1 (h) = L1MK1 (h) (human (h), UniProt P53667 285-638, limits assumed)
BTK (h) = BTK (h) (human (h), UniProt Q06187 1-659)
PKCδ (h) = PKCδ (h) (human (h), UniProt Q05655 1-676)
PKG1β (h) = target: T3, PKG1β (h) (human (h), UniProt Q13976-2 1-686)
T3 sequence (looked up): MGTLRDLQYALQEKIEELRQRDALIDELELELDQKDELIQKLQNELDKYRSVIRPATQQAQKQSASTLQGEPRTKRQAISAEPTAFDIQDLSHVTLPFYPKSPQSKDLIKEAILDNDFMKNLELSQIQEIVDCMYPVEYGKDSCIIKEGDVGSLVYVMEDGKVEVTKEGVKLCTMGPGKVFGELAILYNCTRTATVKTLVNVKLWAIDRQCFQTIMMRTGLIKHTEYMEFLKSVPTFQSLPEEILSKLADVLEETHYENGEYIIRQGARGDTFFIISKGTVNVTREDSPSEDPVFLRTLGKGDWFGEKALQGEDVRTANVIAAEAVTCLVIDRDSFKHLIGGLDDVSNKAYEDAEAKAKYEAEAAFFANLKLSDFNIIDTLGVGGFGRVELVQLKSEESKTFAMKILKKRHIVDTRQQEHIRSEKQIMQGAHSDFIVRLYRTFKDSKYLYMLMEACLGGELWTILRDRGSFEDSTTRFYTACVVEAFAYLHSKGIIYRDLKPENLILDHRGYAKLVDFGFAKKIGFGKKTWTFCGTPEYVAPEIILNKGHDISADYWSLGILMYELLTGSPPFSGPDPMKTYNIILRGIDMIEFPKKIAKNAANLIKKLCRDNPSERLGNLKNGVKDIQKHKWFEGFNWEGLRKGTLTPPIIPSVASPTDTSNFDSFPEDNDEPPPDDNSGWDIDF

Met (h) = Met (h) (human (h), UniProt P08581 974-1390, limits assumed)
MEKI (h) = MEKI (h) (human (h), UniProt Q02750 1-393)
IGF-IR (h) = IGF-IR (h) (human (h), UniProt P08069 959-1367, limits assumed)
Flt3 (h) = target: T4, Flt3 (h) (human (h), UniProt P36888 564-993, limits assumed)
T4 sequence (looked up): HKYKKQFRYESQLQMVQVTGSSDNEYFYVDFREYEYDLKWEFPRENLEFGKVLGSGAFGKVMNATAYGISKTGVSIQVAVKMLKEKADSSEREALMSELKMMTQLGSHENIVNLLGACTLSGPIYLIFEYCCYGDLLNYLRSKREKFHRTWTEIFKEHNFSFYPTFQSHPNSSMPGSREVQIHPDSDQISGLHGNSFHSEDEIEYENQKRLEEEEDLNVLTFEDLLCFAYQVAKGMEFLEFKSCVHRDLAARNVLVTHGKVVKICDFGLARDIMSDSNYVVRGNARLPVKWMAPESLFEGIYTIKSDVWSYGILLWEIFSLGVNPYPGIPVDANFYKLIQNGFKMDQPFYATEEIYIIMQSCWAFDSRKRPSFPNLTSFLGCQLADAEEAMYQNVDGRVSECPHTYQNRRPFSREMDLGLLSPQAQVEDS

PKCδ (h), sequence (Q05655 whole entry, stated change not applied): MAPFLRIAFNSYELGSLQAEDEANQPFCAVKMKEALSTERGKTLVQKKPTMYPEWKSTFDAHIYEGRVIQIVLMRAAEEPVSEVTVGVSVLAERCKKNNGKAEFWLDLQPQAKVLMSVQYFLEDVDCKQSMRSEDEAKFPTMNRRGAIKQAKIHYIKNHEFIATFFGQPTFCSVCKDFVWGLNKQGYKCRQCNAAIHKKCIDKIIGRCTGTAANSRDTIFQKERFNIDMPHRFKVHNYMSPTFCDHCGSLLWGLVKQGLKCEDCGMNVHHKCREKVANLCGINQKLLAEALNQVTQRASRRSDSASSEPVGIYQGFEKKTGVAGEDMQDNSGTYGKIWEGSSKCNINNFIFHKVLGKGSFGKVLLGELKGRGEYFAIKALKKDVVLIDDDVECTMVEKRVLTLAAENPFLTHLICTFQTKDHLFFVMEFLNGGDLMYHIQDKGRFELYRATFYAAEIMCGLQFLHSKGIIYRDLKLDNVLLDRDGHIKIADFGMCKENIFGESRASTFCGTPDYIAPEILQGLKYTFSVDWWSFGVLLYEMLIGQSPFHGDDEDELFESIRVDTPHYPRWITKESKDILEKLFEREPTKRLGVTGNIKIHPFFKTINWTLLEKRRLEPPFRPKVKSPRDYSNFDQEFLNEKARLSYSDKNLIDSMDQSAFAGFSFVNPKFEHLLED
L1MK1 (h), sequence (P53667 285-638 limits assumed): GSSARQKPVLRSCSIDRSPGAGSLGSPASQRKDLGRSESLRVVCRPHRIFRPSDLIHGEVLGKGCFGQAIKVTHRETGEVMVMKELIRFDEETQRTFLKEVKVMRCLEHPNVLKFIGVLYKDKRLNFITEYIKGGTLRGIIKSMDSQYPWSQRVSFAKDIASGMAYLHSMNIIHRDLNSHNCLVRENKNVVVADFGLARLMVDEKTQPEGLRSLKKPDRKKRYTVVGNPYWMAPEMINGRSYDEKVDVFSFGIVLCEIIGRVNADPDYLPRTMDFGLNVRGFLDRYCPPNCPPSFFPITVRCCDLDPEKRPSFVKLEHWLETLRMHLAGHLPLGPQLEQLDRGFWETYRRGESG
MAPKI (h), sequence (P28482 whole entry): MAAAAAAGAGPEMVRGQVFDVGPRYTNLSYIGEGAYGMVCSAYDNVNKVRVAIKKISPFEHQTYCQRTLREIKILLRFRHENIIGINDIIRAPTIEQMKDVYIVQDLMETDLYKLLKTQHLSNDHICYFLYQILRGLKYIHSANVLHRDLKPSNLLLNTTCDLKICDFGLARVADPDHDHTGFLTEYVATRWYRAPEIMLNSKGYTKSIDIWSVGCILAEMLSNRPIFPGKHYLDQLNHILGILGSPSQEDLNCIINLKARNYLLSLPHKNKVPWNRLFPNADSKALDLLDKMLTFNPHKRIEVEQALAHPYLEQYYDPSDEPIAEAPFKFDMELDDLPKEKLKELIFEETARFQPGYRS
cKit (h), sequence (P10721 544-976 limits assumed): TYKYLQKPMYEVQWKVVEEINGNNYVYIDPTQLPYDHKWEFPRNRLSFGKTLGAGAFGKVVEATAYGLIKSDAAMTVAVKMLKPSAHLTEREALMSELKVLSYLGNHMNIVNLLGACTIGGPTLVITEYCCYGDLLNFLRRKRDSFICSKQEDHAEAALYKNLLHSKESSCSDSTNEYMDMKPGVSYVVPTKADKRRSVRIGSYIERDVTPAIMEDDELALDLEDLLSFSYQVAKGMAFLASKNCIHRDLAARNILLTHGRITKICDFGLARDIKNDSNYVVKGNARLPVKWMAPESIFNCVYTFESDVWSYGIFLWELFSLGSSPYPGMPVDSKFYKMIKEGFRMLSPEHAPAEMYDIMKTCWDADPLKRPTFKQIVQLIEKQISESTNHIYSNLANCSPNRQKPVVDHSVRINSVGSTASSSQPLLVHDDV
PKB β (h), sequence (P31751 whole entry): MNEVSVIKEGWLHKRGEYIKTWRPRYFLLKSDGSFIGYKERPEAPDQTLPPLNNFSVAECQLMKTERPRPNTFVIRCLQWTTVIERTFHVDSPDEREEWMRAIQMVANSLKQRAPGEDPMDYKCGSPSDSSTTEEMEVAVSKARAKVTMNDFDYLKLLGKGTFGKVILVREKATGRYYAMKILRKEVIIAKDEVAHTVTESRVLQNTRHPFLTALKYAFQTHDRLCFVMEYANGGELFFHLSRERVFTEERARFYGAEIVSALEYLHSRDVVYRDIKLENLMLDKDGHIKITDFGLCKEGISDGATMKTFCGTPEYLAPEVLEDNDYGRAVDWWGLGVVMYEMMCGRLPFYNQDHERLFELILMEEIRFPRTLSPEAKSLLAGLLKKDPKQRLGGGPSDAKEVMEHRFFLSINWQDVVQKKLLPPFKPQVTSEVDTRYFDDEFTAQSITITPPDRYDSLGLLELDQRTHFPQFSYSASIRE
Met (h), sequence (P08581 974-1390 limits assumed): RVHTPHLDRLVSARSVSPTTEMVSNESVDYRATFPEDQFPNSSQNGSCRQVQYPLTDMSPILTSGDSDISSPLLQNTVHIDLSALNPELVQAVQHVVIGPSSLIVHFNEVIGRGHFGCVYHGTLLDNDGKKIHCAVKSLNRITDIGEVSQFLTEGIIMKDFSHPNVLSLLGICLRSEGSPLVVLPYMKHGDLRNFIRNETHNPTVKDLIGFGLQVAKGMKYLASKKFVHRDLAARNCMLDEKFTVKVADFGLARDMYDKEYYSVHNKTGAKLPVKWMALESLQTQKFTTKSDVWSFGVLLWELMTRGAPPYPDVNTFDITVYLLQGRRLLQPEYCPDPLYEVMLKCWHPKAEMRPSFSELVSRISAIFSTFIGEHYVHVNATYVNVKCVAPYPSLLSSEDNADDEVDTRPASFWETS
Lck (h), sequence (P06239 whole entry): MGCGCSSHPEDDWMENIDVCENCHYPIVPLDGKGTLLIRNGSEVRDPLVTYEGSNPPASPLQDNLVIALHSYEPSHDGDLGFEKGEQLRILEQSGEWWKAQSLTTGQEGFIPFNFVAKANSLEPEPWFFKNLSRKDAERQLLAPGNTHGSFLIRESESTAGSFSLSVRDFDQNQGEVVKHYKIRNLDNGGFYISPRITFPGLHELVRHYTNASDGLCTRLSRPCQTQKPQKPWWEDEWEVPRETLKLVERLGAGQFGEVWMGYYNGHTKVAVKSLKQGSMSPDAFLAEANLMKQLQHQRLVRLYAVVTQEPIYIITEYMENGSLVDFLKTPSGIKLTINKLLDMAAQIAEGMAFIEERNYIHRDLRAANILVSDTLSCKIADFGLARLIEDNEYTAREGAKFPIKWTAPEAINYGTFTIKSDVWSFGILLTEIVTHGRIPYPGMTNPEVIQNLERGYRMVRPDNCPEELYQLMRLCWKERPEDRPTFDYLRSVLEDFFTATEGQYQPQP
BTK (h), sequence (Q06187 whole entry): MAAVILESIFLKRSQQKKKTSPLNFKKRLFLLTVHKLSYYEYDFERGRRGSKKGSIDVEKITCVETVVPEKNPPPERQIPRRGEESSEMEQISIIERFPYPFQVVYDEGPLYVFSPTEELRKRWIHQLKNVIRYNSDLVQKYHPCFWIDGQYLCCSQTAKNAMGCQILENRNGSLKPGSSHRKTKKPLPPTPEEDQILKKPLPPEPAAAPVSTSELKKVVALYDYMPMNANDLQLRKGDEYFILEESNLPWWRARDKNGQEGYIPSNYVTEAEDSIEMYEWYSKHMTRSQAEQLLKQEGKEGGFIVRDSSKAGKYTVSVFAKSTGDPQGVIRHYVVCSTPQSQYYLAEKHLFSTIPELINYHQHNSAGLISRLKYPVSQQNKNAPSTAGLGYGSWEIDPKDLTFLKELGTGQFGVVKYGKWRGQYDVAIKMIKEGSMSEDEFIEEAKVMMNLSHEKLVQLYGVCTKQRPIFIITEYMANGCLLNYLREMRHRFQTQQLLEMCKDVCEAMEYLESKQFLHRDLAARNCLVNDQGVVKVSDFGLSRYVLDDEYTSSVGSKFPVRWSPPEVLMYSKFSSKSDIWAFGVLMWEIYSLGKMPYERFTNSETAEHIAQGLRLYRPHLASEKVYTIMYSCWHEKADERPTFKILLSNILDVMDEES
IGF-IR (h), sequence (P08069 959-1367 limits assumed): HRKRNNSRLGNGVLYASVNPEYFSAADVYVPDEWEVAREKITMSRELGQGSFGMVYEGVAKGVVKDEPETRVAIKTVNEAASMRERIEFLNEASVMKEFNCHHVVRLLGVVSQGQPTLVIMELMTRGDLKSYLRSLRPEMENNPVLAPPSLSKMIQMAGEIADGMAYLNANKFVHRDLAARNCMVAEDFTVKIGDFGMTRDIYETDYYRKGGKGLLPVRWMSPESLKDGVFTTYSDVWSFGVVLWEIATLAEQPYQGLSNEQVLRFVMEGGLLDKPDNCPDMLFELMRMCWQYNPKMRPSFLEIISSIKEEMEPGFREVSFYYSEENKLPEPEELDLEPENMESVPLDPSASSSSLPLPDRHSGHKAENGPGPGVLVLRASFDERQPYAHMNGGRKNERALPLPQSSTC

WLRRIKAWLRRIKALNRQLGVAA
Profile-1 @ = 30 µm (kinase profiler assay) (cKit (h)): 23 | Profile-1 @ = 30 µm (kinase profiler assay) (Ret (h)): 117 | Profile-1 @ = 30 µm (kinase profiler assay) (MAPKI (h)): 121 | Profile-1 @ = 30 µm (kinase profiler assay) (CHK1 (h)): 31 | Profile-1 @ = 30 µm (kinase profiler assay) (Lck (h)): 130 | Profile-1 @ = 30 µm (kinase profiler assay) (PKB β (h)): 18 | Profile-1 @ = 30 µm (kinase profiler assay) (L1MK1 (h)): 89 | Profile-1 @ = 30 µm (kinase profiler assay) (BTK (h)): 5 | Profile-1 @ = 30 µm (kinase profiler assay) (PKCδ (h)): 11 | Profile-1 @ = 30 µm (kinase profiler assay) (PKG1β (h)): 15 | Profile-1 @ = 30 µm (kinase profiler assay) (Met (h)): 30 | Profile-1 @ = 30 µm (kinase profiler assay) (MEKI (h)): 14 | Profile-1 @ = 30 µm (kinase profiler assay) (IGF-IR (h)): 227 | Profile-1 @ = 30 µm (kinase profiler assay) (Flt3 (h)): 38

From patent publication US20090149389A1 (PURDUE RESEARCH FOUNDATION, published 2009)
